In publication PMC9114370, “Heat shock protein Grp78/BiP/HspA5 binds directly to TDP-43 and mitigates toxicity associated with disease pathology” (Scientific Reports, 2022):
Values joined by “and” are separate entries in the source; they are usually repeats but may differ in a detail not shown here. Equal entries are not always repeated.

Tests used:
Settings in all cases: both partners purified
[1] = target: T1, HspA5 substrate binding domain (SBD) (human, UniProt P11021 420-654); test: MST; NTA-labelled TDP-43(102-269), HspA5 titrated, in the presence of UG6 RNA (increasing concentrations; concentration not given)
T1 construct: SBD approximately 200 amino acids long; vector pSpeedET; also called HspA5-SBD; Grp78; source: E. coli BL21-Codon plus, purified (cobalt IMAC, TEV cleavage)
T1 sequence (P11021 420-654): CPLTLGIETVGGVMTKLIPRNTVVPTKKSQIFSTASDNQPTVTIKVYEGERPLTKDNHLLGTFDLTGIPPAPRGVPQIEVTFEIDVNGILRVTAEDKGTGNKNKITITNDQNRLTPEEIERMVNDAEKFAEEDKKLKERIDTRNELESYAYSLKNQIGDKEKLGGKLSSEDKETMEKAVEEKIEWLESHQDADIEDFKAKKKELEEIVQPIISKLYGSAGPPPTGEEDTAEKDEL

[2] = target: T2, HspA1A substrate binding domain (SBD) (human, UniProt P0DMV8 395-641); test: MST; 50 nM labelled TDP-43 construct (RED-NTA labelling), ranging concentrations of Hsp70 SBD titrated, MST buffer, premium capillaries, 40% LED, medium MST power; no RNA
T2 construct: SBD approximately 200 amino acids long; vector pSpeedET; also called Hsp70 SBD; source: E. coli BL21-Codon plus, purified (cobalt IMAC, TEV cleavage)
T2 sequence (P0DMV8 395-641): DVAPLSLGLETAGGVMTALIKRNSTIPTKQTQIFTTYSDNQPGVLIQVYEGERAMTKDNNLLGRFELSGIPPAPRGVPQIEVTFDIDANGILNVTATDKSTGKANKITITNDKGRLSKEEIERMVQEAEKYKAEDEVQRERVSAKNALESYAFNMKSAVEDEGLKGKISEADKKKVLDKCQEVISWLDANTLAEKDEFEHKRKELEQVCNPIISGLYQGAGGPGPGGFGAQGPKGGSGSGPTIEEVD

[3] = target: T1, HspA5 substrate binding domain (SBD); test: as above

- Kd [1]: 28300 nM
- Kd [2]: 2350 nM
- Kd [3]: 298 nM and 890 nM
B1: TDP43_(102-269)-His (domain or fragment, human, UniProt Q13148 102-269, looked up)
chain: KTSDLIVLGLPWKTTEQDLKEYFSTFGEVLMVQVKKDLKTGHSKGFGFVRFTEYETQVKVMSQRHMIDGRWCDCKLPNSKQSQDEPLRSRKVFVGRCTEDMTEDELREFFSQYGDVMDVFIPKPFRAFAFVTFADDQIAQSLCGEDLIIKGISVHISNAEPKHNSNRQ
modifications: labelled with Monolith Protein Labeling Kit RED-NTA
notes: also called RRM domain; RRM domains of TDP-43; source: recombinantly expressed, purified
